Experimental data: patent US20180044385A1
Positions count from the first letter of the chain named.

B1: Protein-G-A1 (designed binder)
chain: MKGETTTEAVDAATAEKVFKQYANDNGVDGEWTYDDATKTFTVTEKPEVIDASELTPAVTTYKLVINGRTLSGYTTTTAVDAATAEKVFKQYAYVHEVDGEWTYDDATKTFTVTEKPEVIDASELTPAVTTYKLVINGRTLSGETTTKAVDAETAEKAFKQYANDNGVDGVWTYDDATKTFTVTE
B2: Protein-G-HS C7 (designed binder)
chain: MKGETTTEAVDAATAEKVFKQYANDNGVDGEWTYDDATKTFTVTEKPEVIDASELTPAVTTYKLVINGKTLKGETTTEAVDAATAEKVFKQYANDNGVDGEWTYDDATKTFTVTEKPEVIDASELTPAVTTYKLVINGRTLSGETTTKAVDAETAEKAFKQYAYGAVVDGVWTYDDATKTFTVTE
B3: Protein-G-HS C6 (designed binder)
chain: B2 chain with A163S, Y164R, G165P, A166H

Tests used:
[1] = molecular target: 4D5 Fab scaffold possessing a human IgG1 CH1 and a Kappa light chain; test: equilibrium SPR
[2] = molecular target: Fab with lambda light chain (Cλ); test: ELISA; reference is the Fab with kappa light chain
[3] = molecular target: 4D5 Fab scaffold possessing a human IgG1 CH1 and a Kappa light chain; test: SPR
[4] = molecular target: 4D5 Fab scaffold possessing a human IgG1 CH1 and a Kappa light chain; test: fluorescence polarization with Alexa-Fluor labeled Protein-G, pH varied
IgG2, IgG3 and IgG4 = test: method not stated (data not shown)
[5] = molecular target: FabHS (a human 4D5 scaffold with residues PEELRTNK replacing light chain positions 122-129); test: protein ELISA

Row | Binder | Kd [1] | EC50 ratio, Cλ Fab over CK Fab [2] | fold higher affinity than wild-type Protein-G [3] | fold decrease in affinity from pH 7.5 to pH 4 [4] | fold loss of affinity between pH 5.5 and pH 4.0 [4] | fold decrease in affinity relative to human IgG1 (IgG2, IgG3 and IgG4) | IC50 [5]
1 | B1 | 25 nM | > 5000 fold | 100 fold | 1000 fold | 300 fold | 20 to 50 fold | –
2 | B2 | – | – | – | – | – | – | 100 nM
3 | B3 | – | – | – | – | – | – | 8 nM
